Experiments:
[1] = molecular target: JCV VP1 pentamer (amino acids 22-289) A126Q, His-tagged (JC polyomavirus (JCV), Mad-1 strain); experiment: SEC
[2] = molecular target: JCV VP1 pentamer (amino acids 22-289) A126Y, His-tagged (JC polyomavirus (JCV), Mad-1 strain); experiment: SEC
[3] = molecular target: JCV VP1 pentamer (amino acids 22-289) L54Y, His-tagged (JC polyomavirus (JCV), Mad-1 strain); experiment: SEC
[4] = molecular target: JCV VP1 pentamer (amino acids 22-289) N123A, His-tagged (JC polyomavirus (JCV), Mad-1 strain); experiment: SEC
[5] = molecular target: JCV VP1 pentamer (amino acids 22-289) R265A, His-tagged (JC polyomavirus (JCV), Mad-1 strain); experiment: SEC
[6] = molecular target: JCV VP1 pentamer (amino acids 22-289) S266A/S268A, His-tagged (JC polyomavirus (JCV), Mad-1 strain); experiment: SEC
[7] = molecular target: JCV VP1 pentamer (amino acids 22-289) S266N/S268N, His-tagged (JC polyomavirus (JCV), Mad-1 strain); experiment: SEC
[8] = molecular target: JCV VP1 pentamer (amino acids 22-289, Mad-1 strain), His-tag removed, as crystallized (JC polyomavirus (JCV), Mad-1 strain); experiment: crystal structure
[9] = molecular target: JCV VP1 pentamer (amino acids 22-289, Mad-1 strain), His-tagged, wild type (JC polyomavirus (JCV), Mad-1 strain); experiment: SEC

JCV VP1 pentamer (amino acids 22-289) A126Q, His-tagged (domain or fragment)
stoichiometry N [1]: 5

JCV VP1 pentamer (amino acids 22-289) A126Y, His-tagged (domain or fragment)
stoichiometry N [2]: 5

JCV VP1 pentamer (amino acids 22-289) L54Y, His-tagged (domain or fragment)
stoichiometry N [3]: 5

JCV VP1 pentamer (amino acids 22-289) N123A, His-tagged (domain or fragment)
stoichiometry N [4]: 5

JCV VP1 pentamer (amino acids 22-289) R265A, His-tagged (domain or fragment)
stoichiometry N [5]: 5

JCV VP1 pentamer (amino acids 22-289) S266A/S268A, His-tagged (domain or fragment)
stoichiometry N [6]: 5

JCV VP1 pentamer (amino acids 22-289) S266N/S268N, His-tagged (domain or fragment)
stoichiometry N [7]: 5

JCV VP1 pentamer (amino acids 22-289, Mad-1 strain), His-tag removed, as crystallized (domain or fragment)
stoichiometry N [8]: 5

JCV VP1 pentamer (amino acids 22-289, Mad-1 strain), His-tagged, wild type (domain or fragment)
stoichiometry N [9]: 5

— PMC2957469
